T1: CD27 protein (His-tagged, Sino Biological Inc. 10039-H08B1) (human, UniProt P26842 20-192)
T1 construct: bought protein coated on ELISA plates; also called TNFRSF7; not shown: His tag
T1 sequence (looked up): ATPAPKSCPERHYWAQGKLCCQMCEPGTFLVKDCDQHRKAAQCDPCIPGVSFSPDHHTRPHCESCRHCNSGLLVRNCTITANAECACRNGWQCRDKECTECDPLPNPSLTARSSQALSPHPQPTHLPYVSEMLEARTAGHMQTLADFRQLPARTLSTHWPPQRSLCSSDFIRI

T2: CD27 expressed on the cell surface of HT1080_CD27 cells (human, UniProt P26842 20-260)
T2 construct: whole, on cells; species not restated for the HT1080 transfectant
T2 sequence (looked up): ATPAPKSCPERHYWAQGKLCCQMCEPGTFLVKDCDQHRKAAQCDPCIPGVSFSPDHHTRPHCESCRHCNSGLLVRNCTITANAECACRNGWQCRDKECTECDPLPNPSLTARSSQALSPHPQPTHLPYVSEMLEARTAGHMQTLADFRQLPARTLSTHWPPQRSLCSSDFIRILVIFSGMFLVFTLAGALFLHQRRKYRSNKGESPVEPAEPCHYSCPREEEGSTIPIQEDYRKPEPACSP

B1: P018.S.05.A.D03 (antibody, V domains shown)
VH: QEQLEESGGDLVQPEGSLTLTCTVSGFSFNSNYWICWVRQAPGKGLEWIACIMTGDGSTYYATWAKGRFTISKTSSTTVTLQMTSLTAADTATYFCARGYDGIHGGDNYGHVFNLWGPGTLVTVSS
VL: AFELTQTPFSVSAVVGGTVTINCQASENIYSLLAWYQQKPGQPPKLLIYRASTLASGVPSRFKGSGSGTQFTLIISDLESGDAATYYCQSYYINSSNSFGGGTEVVVK
notes: V regions on human Ig constant parts; also called AB27_86
B2: P018.S.05.A.B06 (antibody, V domains shown)
VH: QSVEESGGRLVTPGTPLTLTCTVSGFSLNTYVMSWVRQAPGKGLEWIGYIDYGGAPYYASWAKGRFTISKTSTTVELKITSPTIEDTATYFCARGGYGGYVLVTVLWGPGTLVTVSS
VL: DVVMTQTPASVSEPVGGTVTIKCQASQNIYSSLAWYQQKPGQPPKLLIYQASTLASEVPSRFKGSGSGTEFTLTINDLESADAATYYCQTYYGGSTYGNGFGGGTEVVVE
notes: V regions on human Ig constant parts; also called AB27_84
B3: P018.S.07.A.A02 (antibody, V domains shown)
VH: QSVEESGGRLVTPGTPLTLTCTVSGFSLSSYVMSWVRQAPGKGLEWIGYIDYGGAPYYASWAKGRFTISKTSTTVELKITSPTIEDTATYFCARGGYGGYVLVTVLWGPGTLVTVSS
VL: DVVMTQTPASVSEPVGGTVTIKCQASQNIYSSLAWYQQKPGQPPKLLIYQASRLASEVPSRFKGSGSGTEFTLTISDLESADAATYYCQTYYGGSTYGNGFGGGTEVVVE
notes: V regions on human Ig constant parts; also called AB27_113
B4: P018.S.01.A.E02 (antibody, V domains shown)
VH: QSVEESGGRLVTPGTPLTLTCTASGFSLSNYYMSWVRQAPGKGLEWIGIISTYGDTYYATWAKGRFTISKTSTTVDLKITSPTTEDTATYFCARGSSDTYYTYFNLWGPGTLVTVSS
VL: DIVMTQTPASVEAAVGGTVTIKCQASQKIYNNLAWYQQKPGQPPKLLIYSASTLASGVPSRFKGSGSGTEFTLTISDLESADAATYYCQSYGVSANTISYGLPFGGGTEVVVK
notes: V regions on human Ig constant parts; also called AB27_14
B5: P018.S.05.A.E03 (antibody, V domains shown)
VH: QSLEESGGRLVTPGGSLTLTCTVSGIDLSSYAMGWVRQAPGKGLEWIGYITYGGSTYYANWVNGRFTISKTSTMVDLKMTSLTAADTATYFCARLRAPYYYRIYFNLWGPGTLVTVSS
VL: ALVMTQTPSSVEAAVGGTVTIKCQASQNIISALAWYQQKPGQPPKLLIYDASNLESGVPSRFKGSGSGTDFTLTISDLESADAATYYCQGAYDTNINDFGGGTEVVVK
notes: V regions on human Ig constant parts; also called AB27_89
B6: P018.S.07.A.D05 (antibody, V domains shown)
VH: QSLEESGGDLVKPEGSLTLTCTASGFSFSSSYWICWVRQAPGKGLEWIGCMITGRGNTYYATWAKGRFTISKTSSTTVTLQMTSLTAADTATYFCARGPGGADPINLWGPGTLVTVSS
VL: DVVMTQTPASVSEPVGGTVTIKCQASQNIYNNLAWYQQKPGQPPKLLIYLASTLASGVPSRFEGSGSGTEFTLTISGVQSDDAATYYCQSTYDGSSYVPNAFGGGTEVVVK
notes: V regions on human Ig constant parts; also called AB27_124
B7: P018.S.03.A.D05 (antibody, V domains shown)
VH: QSLEESGGRLVTPGTPLTLTCTASGFSLSSYYITWVRQAPGEGLEWIGTISTAGNTYFASWANGRFTISRTSTTVDLKMTSPTTEDTATYFCARDGAGDSNYYRNLWGQGTLVTVSS
VL: DIVLTQTPASVEAAVGGTVTIKCQASQSIDRFLAWYQQKPGQPPKLLIYDASDLASGVPSRFSGSGYGTEFTLTISGVQSEDAATYYCQQGYYISDIHNVFGGGTEVVVK
notes: V regions on human Ig constant parts; also called AB27_50
B8: P018.S.05.A.A06 (antibody, V domains shown)
VH: QSLEESGGRLVTPGTPLTLTCTVSGIDLNNNAMSWVRQAPGEGLEWIGIISTAGTTTYASWTKGRFTISKTSTTVDLKITSPTTEDTATYFCARAAYFSYGYINLWGQGTLVTVSS
VL: DIVMTQTPASVEAAVGGTVTIKCQASQNIGNALAWYQQKSGQPPKLLIYSASTLASGVPSRFKGSGSGTEFTLTISDLESADATTYFCQSYVYSDGNVFGGGTEVVVK
notes: V regions on human Ig constant parts; also called AB27_82
B9: P018.S.10.A.B02 (antibody, V domains shown)
VH: QSVEESGGRLVTPGGSLTLSCTVNGFSLSSHGVSWVRQAPGKGLEWIGIIYVISGHAYYASWAKGRFTISKTSTTVDLKIASPTTEDTATYFCARGNYGSDSGPNFTRLDLWGQGTLVTVSS
VL: AQVLTQTPSPVSATVGGTLTINCQASQSLYNNDYLAWYQQKPGQPPKLLIYLASTLASGVSSRFKGSGSGTQFTLTISGVQSDDAATYYCQGEFSCSSGDCLAFGGGTEVVVK
notes: V regions on human Ig constant parts; also called AB27_167
B10: P018.S.01.A.A06 (antibody, V domains shown)
VH: QSVEESGGRLVTPGTPLTLTCTVSGIDLSTYAMSWVRQAPGKGLEWIGIIYGSGYTYYASWAKGRATISKTSSTTVDLKITSPTTEDTATYFCASGYGISSGNFLHFNLWGQGTLVTVSS
VL: AYDMTQTPASVEVAVGGTVTIKCQASESIYFNLAWYQQKPGQRPKLLIYRASTLASGVSSRFKGSGSGTQFTLTISGVESADAATYYCQQGYDSSHIDNAFGGGTEVVVT
notes: V regions on human Ig constant parts; also called AB27_3
B11: P018.S.04.A.E05 (antibody, V domains shown)
VH: QSLEESGGDLVKPGASLTLTCTASGFSFSSDYYMCWVRQAPGKGLEWIACISAGSSGSIYYASWAKGRFTISKTSSTTVTLQMTSLTAADTATYFCAREASDSIYYPIFNLWGPGTLVTVSS
VL: AAVLTQTPSPVSAAVGGTVSISCQSSKSVYNNNALSWFQQKPGQPPKLLIYGASTLPSRVPSRFKGSGSGTQFTLTISDVQSDDAATYYCIGGYSSSSDTNAFGGGTEVVVK
notes: V regions on human Ig constant parts; also called AB27_76
B12: P018.S.10.A.E02 (antibody, V domains shown)
VH: QEQLEESGGDLVKPEGSLTLTCTASGFSFSSSFYMCWVRQAPGKGLEWVACIYAEDSDYTYYASWAKGRFTISKTSSTTVTLQMTSLTAADTATYFCAREILYPTNTDSFDLWGPGTLVTVSS
VL: AFELTQTPSSVEAAVGGTVTIKCQASESFSSRLAWYQQKPGQPPKLLIYRASTLASGVPSRFKGSGSGTDFTLTISDLESADAAAYYCQAYVGISSGGYAFGGGTEVVVG
notes: V regions on human Ig constant parts; also called AB27_176
B13: P018.S.03.A.D04 (antibody, V domains shown)
VH: QEHLEESGGGLVQPGGTLTLTCKASGIDFSSSYYMCWVRQAPGKGLERLACTYNRDGSTYYASWAKGRFTISKTSSTTVTLQMTSLTVADTATYFCARDDGYPGSGYVLNLWGPGTLVTVSS
VL: DVVMTQTPASVEAAVGGTVTIRCQASQSVSNYFSWYQQKPGQPPKLLIYGASNLESGVPSRFKGSGSGTEFTLTISGVQSDDAATYYCQGGYYSSNTDNNSFGGGTEVVVK
notes: V regions on human Ig constant parts; also called AB27_49
B14: P018.S.09.A.F05 (antibody, V domains shown)
VH: QEQLEESGGDLVKPGASLTLTCTASGFSFSSNYCMCWVRQAPGKGLEWIACICAGASGATYYASWAKGRFTVSKTSSTTVTLQMTSLTGADTATYFCARYDNSGWGDFKLWGPGTLVTVSS
VL: DIVMTQTPASVSEPVGGTVTINCQASQNIGTYLAWYQQKPGQRPKLLIYAASYLASGVPSRFKGSGSGTEVALTISDLESADAATYYCQNTYYDSPVVGGAFGGGTEVVVK
notes: V regions on human Ig constant parts; also called AB27_157
B15: P018.S.08.A.F01 (antibody, V domains shown)
VH: QSVEESGGRLVTPGTPLTLTCTVSGSDISGYALGWVRQAPGKGLEYIGVIAADGNAYYASWAKGRFTISRTSTTVDLKMTSLTTEDTATYFCARGYSSGWGTYGYFDLWGQGTLVTVSS
VL: DIVMTQTPASVSAAVGGTVTIKCQASEDIYSYLAWYQQKPGQPPKLLIYRASTLESGVPSRFKGSGSGTQFTLTISDLESADAATYYCQSYYYSHSTTYSNVFGGGTEVVVK
notes: V regions on human Ig constant parts; also called AB27_140
B16: P018.S.09.A.G06 (antibody, V domains shown)
VH: QSVEESGGRLVTPGTPLTLTCTASGFSLSNYHMSWVRQAPGKGLEWIGIIYAGSDSTWYASWAKGRFTISKTSTTVDLKITSPTTEDTATYFCARQPGGGASDTQLDLWGQGTLVTVSS
VL: AAVLTQTASPVSAAVGGTVTINCQSSQNIFDNNQLSWFQHKSGQSPKLLIYRASTLASGVPSRFKGSGSGTQFTLTISDVQSDDAATYYCLGGYSSSSDTVFGGGTEVVVK
notes: V regions on human Ig constant parts; also called AB27_159

How the values were obtained:
[1] = target: T1, CD27 protein (His-tagged, Sino …); assay: ELISA, coated His-tagged CD27
[2] = target: T2, CD27 expressed on the cell surface of …; assay: HT1080_CD27 cells, imaging
[3] = target: T2, CD27 expressed on the cell surface of …; assay: cell-based or functional assay
Further: test concentration or dose not given here.

| Binder | ELISA [abs. corr.] [1] [abs. corr.] | Cellular binding assay [RFU] [2] [RFU] | Functional assay Cross-linked by F(ab′)2 fragment IL-8 [3] [abs. corr.] | Functional assay IL-8 [3] [abs. corr.] |
| --- | --- | --- | --- | --- |
| B1 | 3.1 | 321 | 1.28 | 0.1 |
| B2 | 3.1 | 309 | 1.7 | 0.22 |
| B3 | 3.08 | 314 | 1.85 | 0.059 |
| B4 | 3.13 | 360 | 1.17 | 0.276 |
| B5 | 3.07 | 322 | 1.92 | 0.208 |
| B6 | 3.08 | 329 | 1.64 | -0.032 |
| B7 | 3.12 | 324 | 1.5 | 0.5 |
| B8 | 3.11 | 374 | 1.58 | 0.324 |
| B9 | 3.11 | 249 | 1.91 | 0.47 |
| B10 | 3.09 | 287 | 1.92 | 0.566 |
| B11 | 3.11 | 319 | 1.77 | 0.747 |
| B12 | 3.02 | 395 | 1.39 | 0.23 |
| B13 | 3.1 | 270 | 1.23 | 0.513 |
| B14 | 3.12 | 400 | 1.68 | 0.158 |
| B15 | 3.1 | 395 | 1.11 | 0.211 |
| B16 | 3.12 | 338 | 1.34 | 0.467 |

Source: patent US20210253725A1 (BIONTECH, published 2021)
